By EC50 is commonly meant the midpoint of the concentration-response curve.

The labels stand for the following.
B1: ADC 100H7-A-07-A (antibody, human IgG1, kappa, V domains shown)
VH: EVQLVESGGGVVLPGRSLRLSCAASGFTFSRNAMHWVRQAPGKGLEWVAVIWHDGSNKYYGDSVKGRFTISRDNSKNTLYLQMDSLTAEDTAVYYCARDRGASDFRGQGTLVTVSS
VL: DIQMTQSPSTLSASVGDRVTITCRASQSINNWLAWYQQKPEKAPKLLIYKASSLESGVPSRFSGSGSGTEFTLTISSLQPDDFATYYCQQYNSYSLTFGGGTKVEIKR
modifications: drug-linker A-07-A on a cysteine sulfhydryl group; LC-DAR1 ratio 1.000; drug-linker A-07-A on cysteine sulfhydryl groups after TCEP reduction; mainly 3 per heavy chain (HC-DAR3 ratio 0.989)
B2: ADC 22B6-A-01 (antibody, human IgG1, kappa, V domains shown)
VH: EVHLVESGGGVVQPGRSLRLSCATSGFTFRSYGMHWVRQAPGKGLEWVAVIWYDGSNKYYADSVKGRFTISRDISKNTLYLQMNSLTAEDTAVYYCARYYYDSNGYYDAFDIWGQGTMVTVSS
VL: DIQLTQSPSFLSASVGDRVTITCRASQGISNYLAWYQQKPGKAPKLLIFAASTLQSGVPSRFSGSGSGAEFTLTISSLEPEDFATYYCQQLNSYPITFGQGTRLEIKR
modifications: drug-linker A-01 on a cysteine sulfhydryl group; LC-DAR1 ratio 0.990; drug-linker A-01 on cysteine sulfhydryl groups after TCEP reduction; mainly 3 per heavy chain (HC-DAR3 ratio 0.981)
B3: ADC 22B6-A-07-A-1 (antibody, human IgG1, kappa, V domains shown)
VH: B2 VH
VL: B2 VL
modifications: drug-linker A-07-A on a cysteine sulfhydryl group; mainly 1 per light chain (LC-DAR1 ratio 0.998); drug-linker A-07-A on cysteine sulfhydryl groups after TCEP reduction; mainly 3 per heavy chain (HC-DAR3 ratio 0.966)
B4: ADC 22B6-B-01 (antibody, human IgG1, kappa, V domains shown)
VH: B2 VH
VL: B2 VL
modifications: drug-linker B-01 on a cysteine sulfhydryl group; LC-DAR1 ratio 0.999; drug-linker B-01 on cysteine sulfhydryl groups after TCEP reduction; mainly 3 per heavy chain (HC-DAR3 ratio 0.933)
B5: ADC 47A3-A-07-A (antibody, human IgG1, kappa, V domains shown)
VH: EVQLQESGPGLVKPSQTLSLTCAISGDSVSSSQSTWNWIRQSPSRGLEWLGRTFYRSRWYNDYALSMKSRITINPDTSKNQFSLQLNPVTPEDTAVYYCARDTYYYGSGGFDYWGQGSRVTVSS
VL: DIQMTQSPSTLSASVGDRVTITCRASQSLSRWLAWYQQKPEKAPKLLIYKASSLESGVPSRFSGSGSGTEFTLTISTLQPDDFATYYCQQYKNYYSFGQGTKLEIKR
modifications: drug-linker A-07-A on a cysteine sulfhydryl group; LC-DAR1 ratio 0.820; drug-linker A-07-A on cysteine sulfhydryl groups after TCEP reduction; HC-DAR3 ratio 0.760, HC-DAR0 ratio 0.222
B6: 22B6D2-hIgG1 (antibody, V domains shown)
VH: B2 VH
VL: B2 VL
B7: U1-59 (HER3 control antibody) (antibody, V domains shown)
VH: QVQLQQWGAGLLKPSETLSLTCAVYGGSFSGYYWSWIRQPPGKGLEWIGEINHSGSTNYNPSLKSRVTISVETSKNQFSLKLSSVTAADTAVYYCARDKWTWYFDLWGRGTLVTVSS
VL: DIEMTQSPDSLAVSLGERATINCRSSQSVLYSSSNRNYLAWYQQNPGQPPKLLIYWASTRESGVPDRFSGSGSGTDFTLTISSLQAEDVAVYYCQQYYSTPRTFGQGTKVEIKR
B8: ADC 22B6-B-04-02 (antibody, human IgG1, kappa, V domains shown)
VH: B2 VH
VL: B2 VL
modifications: drug-linker B-04 on cysteine sulfhydryl groups after TCEP reduction (overall DAR 6.87; split between the chains not given)
notes: Antibody-drug conjugate of 22B6D2-hIgG1 with drug-linker B-04; also called 22B6-B-04-2

One experiment concerns the target T1, human epidermal growth factor receptor 3 (HER3) (human, UniProt P21860 20-1342).
T1 construct: whole, on cells; also called ErbB3; Erbb3
Briefly: flow cytometry on KPL-4 cells. The protocol: (§1) The affinity of anti-human HER3 ADC to MDA-MB-453, NCI-H358, KPL-4, and A431 cells was detected by flow cytometry (Beckman, model Cytoflex).
(§2) Adherent MDA-MB-453, NCI-H358, KPL-4, A431 cells were digested with Tryple (manufacturer: Gibco) solution, counted, and an appropriate amount of the cells were taken, washed twice with 1×PBS, resuspended in 1% BSA in PBS solution, and then transferred to a 96-well sharp-bottom plate, 50 μl per well; candidate antibodies and drug conjugates thereof were diluted with 1% BSA in PBS solution by 3-fold or 2.5-fold serial dilution starting from 5 μg/mL, and then 50 μl of the diluted antibody or antibody-drug conjugate was added to the sharp-bottom plate containing the cells, and incubation was carried out at 4° C. for 40 minutes; the cells were washed twice with PBS, then added with 50 μl of diluted secondary antibody to each well, mixed, and incubated at 4° C. for 30 minutes; the cells were washed with PBS twice, then resuspended in 400 μl of PBS and detected by flow cytometry. Data processing: the average fluorescence signal values were exported, and then input into GraphPad Prism 6 software to calculate EC50.
With B1, the response was half-maximal at 0.274 µg/mL (EC50).
The molecule B2 had an EC50 of 0.0387 µg/mL.
Same read-out and setting: to B3 belongs 0.0325 µg/mL; to B4, 0.0519 µg/mL.
As for B5, the EC50 turned out to be 0.125 µg/mL.

In a further experiment the target is T1, human epidermal growth factor receptor …. Put plainly: flow cytometry on MDA-MB-453 cells. The protocol: as §1, §2
Turning to B3, a half-maximal effect (EC50) was put at 0.056 µg/mL.
Molecule B6 registered an EC50 of 0.0392 µg/mL.
In the case of B7, the midpoint of the response, the EC50, lay at 0.426 µg/mL.

For another experiment the target is unchanged. Put plainly: flow cytometry on MDA-MB-453 cells (second experiment, dilution from 15 ug/mL). The protocol: The affinity of anti-human HER3 ADC to MDA-MB-453 cells was detected by flow cytometry (Beckman, model Cytoflex).
Adherent MDA-MB-453 cells were digested with Tryple (manufacturer: Gibco) solution, counted, and an appropriate amount of the cells were taken, washed twice with 1×PBS, resuspended in 1% BSA solution, and then transferred to a 96-well sharp-bottom plate, 50 μl per well; candidate antibodies and drug conjugates thereof were diluted with 1% BSA by 3-fold serial dilution starting from 15 μg/mL, and then 50 μl of the diluted antibody or antibody-drug conjugate was added to the sharp-bottom plate containing the cells, and incubation was carried out at 4° C. for 40 minutes; the cells were washed twice with PBS, then added with 50 μl of diluted secondary antibody to each well, mixed, and incubated at 4° C. for 30 minutes; the cells were washed with PBS twice, then resuspended in 200 μl of PBS and detected by flow cytometry. Data processing: the average fluorescence signal values were exported, and then input into GraphPad Prism 6 software to calculate EC50.
B3 displayed an EC50 of 0.147 µg/mL.
In turn, B6 displayed an EC50 of 0.0854 µg/mL.
B8 registered an EC50 of 0.195 µg/mL.
Molecule B7 returned an EC50 of 0.684 µg/mL.

The target is the same in the next experiment. Briefly: flow cytometry on A431 cells. On the procedure: as §1, §2
Background: In flow cytometry, cells or beads pass a laser one at a time.
Regarding B1, the EC50 amounted to 0.266 µg/mL.
In turn, B2 registered an EC50 of 0.0307 µg/mL.
Still for that read-out and setting: to B3 belongs 0.0284 µg/mL; to B4, 0.0328 µg/mL.
Take B5: the EC50 is 0.0656 µg/mL.

Another experiment shares this target. Put plainly: cell-based or functional assay.
Turning to B2, the “IC50 (nM), in vitro cytotoxicity (CCK8, 6 days) on HEK293T-hHER3 cells” value is 0.0014 nM.
Consider B3, for which the “IC50 (nM), in vitro cytotoxicity (CCK8, 6 days) on HCC1569 cells” value was found to be 15.6 nM; the “IC50 (nM), in vitro cytotoxicity (CCK8, 6 days) on HEK293T-hHER3 cells” value amounted to 0.0038 nM; the “IC50 (nM), in vitro cytotoxicity (CCK8, 6 days) on MDA-MB-453 cells” value worked out at 19 nM.

The next experiment has the same target. Briefly: flow cytometry on NCI-H358 cells. On the procedure: as §1, §2
B1 returned a 50% effective concentration (EC50) of 0.427 µg/mL.
Regarding B2, the EC50 was determined as 0.0445 µg/mL.
Same read-out and setting: as for B3, the figure is 0.0329 µg/mL; as for B4, 0.0298 µg/mL; as for B5, 0.158 µg/mL.
